Assay results as given in PMC4570195, “Self-sorting heterodimeric coiled coil peptides with defined and tuneable self-assembly properties” (Scientific Reports, 2015).
Cy5 = fluorescent dye, coupled as Cy5-NHS

T1: EV-Cy5 (Cy5 at the N-terminus (Cy5-NHS used instead of acetic anhydride))
T1 construct: de novo designed 28-residue coiled coil peptide; also called EV modified at the N-terminus with Cy5; source: synthetic peptide (solid phase, Fmoc), purified by reverse phase HPLC
T1 peptide: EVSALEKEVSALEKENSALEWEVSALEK

T2: KV (N-terminal acetylation)
T2 construct: de novo designed 28-residue coiled coil peptide, four heptads (gabcdef); also called KV peptide; source: synthetic peptide (solid phase, Fmoc), purified by reverse phase HPLC
T2 peptide: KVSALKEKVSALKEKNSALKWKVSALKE

B1: KI (peptide)
peptide: Ac-KIAALKEKIAALKEKNAALKWKIAALKE-NH2
notes: de novo designed 28-residue coiled coil peptide, four heptads (gabcdef); also called KI peptide; source: synthetic peptide (solid phase, Fmoc), purified by reverse phase HPLC

Assays:
EV-Cy5 [1] = assay: Fluorescence of EV-Cy5 upon addition of EI and KI
Source text: To further experimentally verify that the peptides undergo thermodynamic self-sorting we modified EV at the N-terminus with a fluorescent dye (Cy5). Although not considered very environmentally sensitive, cyanine dyes tethered to the terminus of single-stranded DNA display significant changes in fluorescence quantum yield, emission lifetime, and fluorescence anisotropy decay upon hybridization with a complementary DNA strand[34][35]. […] This change in binding partner was also supported by simulations (Fig. 6b). The smaller amount of monomeric EV-Cy5 seen in the experiment after addition of EI is presumably an effect of the kinetics involved in the exchange of partners in the heterodimer. The simulations were run until equilibrium whereas the experimental data was acquired after 30 minutes incubation and the exchange was likely not fully completed within this time frame.
Figure 6 (a) Fluorescence spectra and (b) change in normalized intensity at 667 nm for EV-Cy5 upon addition of EI and KI. Addition of the complimentary peptide KI, thus forming EVKI dimers, results in an increase in fluorescence intensity. Subsequent addition of EI reduces the fluorescence intensity due to formation of EIKI dimers, leaving free EV-Cy5. […]
Fmoc-protected amino acids were purchased from Iris Biotech GmbH. […] Peptide concentrations were determined by UV absorbance (ε280(Trp) = 5690 M^−1 cm^−1). […]

EV-Cy5 [2] = target: T1, EV-Cy5; assay: fluorescence emission intensity of a Cy5-labelled peptide; EV-Cy5 5 μM, KI 5 μM added, then EI 5 μM; 30 minutes incubation; intensity at 667 nm; settings: both partners purified
KI [3] = target: B1; assay: circular dichroism, thermal denaturation; Kd at 75 °C, as used for the self-sorting simulations; settings: both partners purified
KI [4] = target: B1; assay: method of continuous variation by circular dichroism; molar ratio of each monomer varied, ellipticity at 222 nm measured; settings: both partners purified
KV [5] = target: T2, KV; assay: as above; settings: both partners purified
KI [6] = target: B1; assay: circular dichroism, thermal denaturation; thermal denaturation at different peptide monomer concentrations, Tm related to Kd; Kd at 20 °C; 10 mM phosphate buffer pH 7; settings: both partners purified
KV [7] = target: T2, KV; assay: as above; settings: both partners purified
KV [8] = target: T2, KV; assay: circular dichroism, thermal denaturation; Kd at 75 °C, as used for the self-sorting simulations; settings: both partners purified

Molecule	change in fluorescence emission intensity, EI added prior to KI (EV-Cy5 [1]; EI added to EV-Cy5 prior to KI, otherwise identical conditions)	change in fluorescence emission intensity (EV-Cy5 [1]; EV-Cy5 5 μM, KI 5 μM then EI 5 μM, 30 min incubation, 667 nm, PB pH 7)	binding result (EV-Cy5 [2])	Kd (KI [3]) [nM]	stoichiometry N (KI [4])	stoichiometry N (KV [5])	Kd (KI [6]) [nM]	Kd (KV [7]) [nM]	Kd (KV [8]) [nM]
EV-Cy5: EV modified at the N-terminus with a fluorescent dye (Cy5) (Cy5-EVSALEKEVSALEKENSALEWEVSALEK-NH2)	a slight decrease in fluorescence intensity	a drop in emission intensity, close to the original intensity of the monomeric EV-Cy5							
B1			binds						
Ac-EVSALEKEVSALEKENSALEWEVSALEK-NH2 (de novo designed 28-residue coiled coil peptide, four heptads (gabcdef); also called EV peptide; source: synthetic peptide (solid phase, Fmoc), purified by reverse phase HPLC) [EV]				> 200	1	1	85	1400	
Ac-EIAALEKEIAALEKENAALEWEIAALEK-NH2 (de novo designed 28-residue coiled coil peptide, four heptads (gabcdef); also called EI peptide; source: synthetic peptide (solid phase, Fmoc), purified by reverse phase HPLC) [EI]					1	1	< 0.1	72	> 200
